Square brackets hold non-standard residues; d marks the D form. Ends that are not written are not given here. αMeF = C[C@](N)(Cc1ccccc1)C(=O)O; Ac5c = NC1(C(=O)O)CCCC1; Aib = CC(C)(N)C(=O)O
Key:
[1] = target: eukaryotic translation initiation factor 4E (eIF4E), full length human (human) (UniProt P06730); test: fluorescence-based thermal shift assay (FTS), Sypro Red, 10 µM eIF4E, 100 µM peptide
[2] = target: eukaryotic translation initiation factor 4E (eIF4E), full length human (human) (UniProt P06730); test: Kd estimated from FTS thermal shift
[3] = target: T1, eukaryotic translation initiation factor 4E (eIF4E), full length human (human, UniProt P06730 2-217); test: fluorescence-based thermal shift assay (FTS), Sypro Red, 10 µM eIF4E, 100 µM peptide
T1 construct: mature; read as P06730; also called eIF4E protein
T1 sequence (P06730 2-217): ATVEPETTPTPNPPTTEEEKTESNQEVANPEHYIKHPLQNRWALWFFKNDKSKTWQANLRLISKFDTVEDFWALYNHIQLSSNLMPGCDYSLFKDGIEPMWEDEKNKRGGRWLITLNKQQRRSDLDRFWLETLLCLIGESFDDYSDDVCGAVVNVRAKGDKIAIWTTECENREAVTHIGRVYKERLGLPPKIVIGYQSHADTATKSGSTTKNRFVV
Method: The fluorescent dye Sypro Red was used to monitor thermal denaturation of eIF4E. Binding of the dye molecule to eIF4E, as it unfolds due to thermal denaturation, results in a sharp increase in the fluorescence intensity. The midpoint of this transition is termed the Tₘ. The thermal shift assay was conducted in the iCycler Real Time Detection System (Bio-Rad, Hercules, Calif.). The system contains a heating/cooling device for accurate temperature control and a charge-coupled device (CCD) detector for simultaneous imaging of the fluorescence changes in the wells of the microplate. […] The final protein concentration was 10 μM. Protein samples were incubated with derivative peptides at a concentration of a 100 μM. The plate was heated from 20 to 90° C. with a heating rate of 1° C./min.

[4] = target: T1, eukaryotic translation initiation …; test: Kd estimated from the FTS thermal shift of eIF4E (10 µM eIF4E, 100 µM peptide)
Method: A fluorescence based thermal shift assay was used to screen and rank the rationally designed eIF4E binding derivative peptides. The fluorescent dye Sypro Red was used to monitor thermal denaturation of eIF4E. Binding of the dye molecule to eIF4E, as it unfolds due to thermal denaturation, results in a sharp increase in the fluorescence intensity. The midpoint of this transition is termed the Tₘ. The thermal shift assay was conducted in the iCycler Real Time Detection System (Bio-Rad, Hercules, Calif.).

[5] = target: T1, eukaryotic translation initiation …; test: ITC, peptide titrated into eIF4E, 20 °C, PBS, one-to-one binding model
Method: (§1) ITC experiments were conducted in a VP-ITC Unit (MicroCal, Northampton, Mass.). […] The buffer used for dialysis of the protein was used to dilute the peptides to their final working concentration. The protein buffer solution was matched to the peptide solution by the addition of DMSO in the case of the non TAT fused peptides. The titration experiments were performed at 20° C. with an initial 2 μl injection with duration of 4 s, fooled by 28 10 μl injections with a duration of 7.1 s. The spacing between each injection was 150 s. The stirring speed during the titration was 290 rpm. Data was analyzed using Microcal Origin software by fitting to a single-site binding model. Correction for the enthalpy of ligand dilution was carried out by subtracting a linear fit from the last three data points of the titration, after the interaction had reached saturation.

[6] = target: T1, eukaryotic translation initiation …; test: ITC, peptide titrated into eIF4E, 20 °C, PBS, one-to-one binding model; entropy calculated; set-up: unit not given here
[7] = target: T1, eukaryotic translation initiation …; test: ITC
[8] = target: T1, eukaryotic translation initiation …; test: ITC, peptide titrated into eIF4E, 20° C.
Method: as §1

[9] = target: T1, eukaryotic translation initiation …; test: fluorescence-based thermal shift assay (FTS), Sypro Red, 10 µM eIF4E, 200 µM peptide (*)
Method: A fluorescence based thermal shift assay was used to screen and rank the rationally designed eIF4E binding derivative peptides. The fluorescent dye Sypro Red was used to monitor thermal denaturation of eIF4E. Binding of the dye molecule to eIF4E, as it unfolds due to thermal denaturation, results in a sharp increase in the fluorescence intensity. The midpoint of this transition is termed the Tₘ. The thermal shift assay was conducted in the iCycler Real Time Detection System (Bio-Rad, Hercules, Calif.). The system contains a heating/cooling device for accurate temperature control and a charge-coupled device (CCD) detector for simultaneous imaging of the fluorescence changes in the wells of the microplate.

[10] = target: T1, eukaryotic translation initiation …; test: Kd estimated from the FTS thermal shift of eIF4E (10 µM eIF4E, 200 µM peptide)
[11] = target: T1, eukaryotic translation initiation …; test: FTS thermal shift assay
[12] = target: T1, eukaryotic translation initiation …; test: ITC, apparent Kd against the template peptide
Method: as §1

[13] = target: T1, eukaryotic translation initiation …; test: ITC, peptide titrated into eIF4E, 20 °C, PBS, one-to-one binding model; set-up: unit not given here
[14] = target: T1, eukaryotic translation initiation …; test: ITC, apparent Kd
[15] = target: T1, eukaryotic translation initiation …; test: ITC, peptide titrated into eIF4E, 20 °C, PBS, one-to-one binding model; entropy calculated
[16] = target: T1, eukaryotic translation initiation …; test: fluorescence-based thermal stability assay (FTS)

Chain of eukaryotic translation initiation factor 4E (eIF4E), full length human (human) (P06730 2-217): as above

Molecule | ΔT (°C) [3] | Kd [4] | other results
Tr2_AIB3_A5C peptide (YDREFLL5FQF) |  |  | ΔT (°C) [1]: 6.6 °C; Kd [2]: 1450 nM
Y[Aib]REFLLGFQF (not fully specified (C-terminus)) [Tr2_AIB1 peptide] | 1.32 °C | 29800 nM | 
YDREFLLXFQF (not fully specified; G631 replaced with aminoisobutyric acid (Aib)) [Tr2_AIB3 peptide] | 5.42 °C | 3050 nM | 
YAREFLL[Ac5c]FQF (not fully specified (C-terminus)) [Tr2_ALA_A5C1 (Tr2_AIB3_A5C with alanine at position 625)] | 5.02 °C | 760 nM | 
YDAEFLL[Ac5c]FQF (not fully specified (C-terminus)) [Tr2_ALA_A5C2 (Tr2_AIB3_A5C with R626 replaced with alanine)] | 2.69 °C | 14300 nM | 
YDRAFLL[Ac5c]FQF (not fully specified (C-terminus)) [Tr2_ALA_A5C3 (Tr2_AIB3_A5C with alanine at position 627)] | 4.22 °C | 1220 nM | 
YDREALL[Ac5c]FQF (not fully specified (C-terminus), 29=625, 30=626, 31=627, 34=633)) [Tr2_ALA_A5C4 (Tr2_AIB3_A5C with F628 replaced with alanine)] | 3.72 °C | 8090 nM | 
YDREFLL[Ac5c]AQF (not fully specified (C-terminus)) [Tr2_ALA_A5C5 (Tr2_AIB3_A5C with F632 replaced with alanine)] | 3.65 °C | 8400 nM | 
YDREFLL[Ac5c]FAF (not fully specified (C-terminus)) [Tr2_ALA_A5C6 (Tr2_AIB3_A5C with alanine at position 633)] | 6.72 °C | 1370 nM | 
YDREFLL[Ac5c]FQA (not fully specified (C-terminus)) [Tr2_ALA_A5C7 (Tr2_AIB3_A5C with F634 replaced with alanine)] | 5.48 °C | 2900 nM | 
YDREFLLGF[Aib]F (not fully specified (C-terminus)) [Tr2_AIB4 peptide] | 1.52 °C | 25100 nM | 
YDREFLLGFQF (not fully specified (C-terminus), also called truncated Tr2) [Tr2 peptide (truncated 11mer eIF4G1 peptide)] | 4.2 °C | 5960 nM | Kd [5]: 1010 nM; -TΔS [6]: -2.91; binding enthalpy [7]: -10.9 kcal/mol; Kd [8]: 1040 nM
ADREFLLGFQF (not fully specified (C-terminus)) [11mer (control) peptide with the conserved tyrosine mutated to alanine] |  |  | binding result [9]: no binding (tested: 200 µM); ΔT (°C) [9]: 0.65 °C
YDREFLLAFQF-NH2 (not fully specified) [Tr2_AIB3_ALA] | 5.6 °C | 2550 nM | 
YDREFLLXFQF (position 631 (printed '3') = 1-amino cyclopropanoic acid; C-terminal amide (-NH2)) [Tr2_AIB3_A3C] | 5.67 °C | 2500 nM | 
YDREFLLXFQF (position 631 (printed '4') = 1-amino cyclobutanoic acid; C-terminal amide (-NH2)) [Tr2_AIB3_A4C] | 5.8 °C | 2350 nM | 
KKRYDREFLL-NH2 [Tr1] |  |  | ΔT (°C) [9]: 1.7 °C; Kd [10]: 50200 nM
YDREXLLXFQF (not fully specified; Cα-methyl-L-phenylalanine at position 628; 1-aminocyclopentanecarboxylic acid (A5C) at position 631, also called truncated modified Tr2_me5-1 peptide) [Tr2_me5-1 peptide (YDRE*LL5FQF)] | 8.8 °C | 360 nM | -TΔS [6]: -6.89; binding enthalpy [7]: -16.1 kcal/mol; Kd [8]: 146 nM
YDREFLLXFQX (position 631 (printed '5') = 1-amino cyclopentanoic acid; position 634 (printed '*') = Cα-Me-L-Phenylalanine; C-terminal amide (-NH2)) [Tr2_me5_3] | 5.8 °C | 2400 nM | 
KKRYDRE[αMeF]LL[Ac5c]FQF (not fully specified (C-terminus), also called modified 14mer eIF4G1_me5 peptide; helically stabilized peptide) [eIF4G1_me5 peptide (KKRYDRE*LL5FQF)] | 14.6 °C | 7 nM | fold increase in thermal shift over the original 14-mer eIF4G1 peptide [11]: 1.7 fold; thermal shift in the melting temperature of eIF4E [11]: ~14 ° C.; -TΔS [6]: -3.69; binding enthalpy [7]: -14.4 kcal/mol; ΔΔG against the template peptide (eIF4G1) [7]: ~1.6 kcal/mol; fold more potent than the template peptide (eIF4G1) [12]: ~15.7 fold; Kd [8]: 9.43 nM
YGRKKRRQRRRGTKKRYDREFLLGFQF (also called eIF4G1 TAT fused peptide) [TAT_eIF4G1 peptide] |  |  | ΔH [13]: -5.52; Kd [14]: 56.2 nM; fold lower Kd than the shorter parent peptide (eIF4G1) [7]: ~2.7 fold; ΔS [15]: 15 Cal mol-1K-1
YGRKKRRQRRRGTKKRYDRE[αMeF]LL[Ac5c]FQF [TAT_eIF4G1_me5 peptide (YGRKKRRQRRRGTKKRYDRE*LL5FQF)] |  |  | ΔH [13]: -12.4; thermal shift in the Tm of eIF4E greater than that of the TAT_eIF4G1 peptide [11]: ~0.82 ° C.; Kd [14]: 10.2 nM; ΔS [15]: -5.69 Cal mol-1K-1
YDREFLLGFQ-NH2 [Tr3] |  |  | ΔT (°C) [9]: 2.25 °C; Kd [10]: 35200 nM
YDR[Aib]FLLGFQF (not fully specified (C-terminus)) [Tr2_AIB2 peptide] |  |  | binding result [3]: no binding (tested: 100 µM)
YGRKKRRQRRR (also called TAT tag) [TAT peptide (YGRKKRRQRRR)] |  |  | binding result [16]: no binding
